Measured values as given in publication PMC11754754, “Structure and mechanism of biosynthesis of Streptococcus mutans cell wall polysaccharide” (Nature Communications, 2025).

How the values were obtained:
[1] = test system: CC(C)=CCC/C(C)=C/CC/C(C)=C/CC/C(C)=C\CC/C(C)=C\CC/C(C)=C\CC/C(C)=C\CC/C(C)=C\CC/C(C)=C\CC/C(C)=C\CC/C(C)=C\COP(=O)(O)O; test: radiometric [3H]Glc-lipid formation, E. coli membrane fraction; format: biochemical, Streptococcus mutans; settings: co-substrate UDP-[3H]Glc, Und-P dispersed in CHAPS, 20 mM MgCl2, pH 7.4, 37 °C
Excerpt: (§1) radiometric [3H]Glc-lipid formation, E. coli membrane fraction on SccN

[2] = test system: O=c1ccn([C@@H]2O[C@H](CO[P@@](=O)(O)O[P@@](=O)(O)O[C@H]3O[C@H](CO)[C@@H](O)[C@H](O)[C@H]3O)[C@@H](O)[C@H]2O)c(=O)[nH]1; test: as above; format: biochemical, Streptococcus mutans; settings: labelled compound (UDP-[3H]Glc), co-substrate Und-P in CHAPS, 20 mM MgCl2, pH 7.4, 37 °C
Excerpt: as §1

[3] = test system: CC(C)=CCC/C(C)=C/CC/C(C)=C/CC/C(C)=C\CC/C(C)=C\CC/C(C)=C\CC/C(C)=C\CC/C(C)=C\CC/C(C)=C\CC/C(C)=C\CC/C(C)=C\COP(=O)(O)O; test: cells, lysate or membranes; settings: co-substrate UDP-[3H]Glc, Und-P dispersed in CHAPS, 20 mM MgCl2, pH 7.4, 37 °C
Excerpt: (§2) radiometric [3H]Glc-lipid formation, E. coli membrane fraction on SccP

[4] = test system: O=c1ccn([C@@H]2O[C@H](CO[P@@](=O)(O)O[P@@](=O)(O)O[C@H]3O[C@H](CO)[C@@H](O)[C@H](O)[C@H]3O)[C@@H](O)[C@H]2O)c(=O)[nH]1; test: cells, lysate or membranes; settings: labelled compound (UDP-[3H]Glc), co-substrate Und-P in CHAPS, 20 mM MgCl2, pH 7.4, 37 °C
Excerpt: as §2

## SccN (Streptococcus mutans UA159)
[1]
  Km: 5.85 µM
  Vmax: 5.42 µmol/min/mg
[2]
  Km: 1.61 µM
  Vmax: 3.16 µmol/min/mg

## SccP (Streptococcus mutans UA159)
[3]
  Km: 2.56 µM
  Vmax: 0.96 µmol/min/mg
[4]
  Km: 2.50 µM
  Vmax: 0.93 µmol/min/mg
